Assay results reported in US20220306744A1 (CRESCENDO BIOLOGICS, published 2022).

molecular target: T1, human PD-1 expressed on cells (CHO TREX human PD1 cell line, full-length human PD-1 sequence) (human, UniProt Q15116 21-288); assay: worded summary of the screens
T1 construct: Also used for human PD-1 on Jurkat reporter cells, on PathHunter cells and on PHA-stimulated human CD4+ T cells; also called CHO human PD1 cells; CHO human PD-1 cells
T1 sequence (Q15116 21-288): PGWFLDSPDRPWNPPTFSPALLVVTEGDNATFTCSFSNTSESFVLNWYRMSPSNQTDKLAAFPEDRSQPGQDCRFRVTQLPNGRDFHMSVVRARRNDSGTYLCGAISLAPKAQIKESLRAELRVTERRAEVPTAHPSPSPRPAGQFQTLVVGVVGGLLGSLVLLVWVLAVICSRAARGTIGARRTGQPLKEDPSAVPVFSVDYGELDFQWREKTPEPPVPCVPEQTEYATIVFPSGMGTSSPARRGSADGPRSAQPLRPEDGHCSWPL

binding result	Binder
binds	1.51a (VHH) VHH: EVQLVESGGGVVRPGGSLRLSCAASGFTFDDYAMSWVRQAPGKGLEWVSGITWNGGSTGYADSVKDRFTISRDNAKNSLYLQMNSLRAEDTALYYCVRDKYSYAWSYDGFDIWGQGTMVTVSS
binds	1.62a (VHH, also called Humabody 1.62a) VHH: EVQLVESGGGVVRPGGSLRLSCAASGFTFDDYAMSWVRQAPGKGLEWVSGITWNAGSTGYADSVKGRFTISRDNAKNSLYLQMNSLRAEDTALYYCVRDKYSYAWSYDDFDIWGQGTMVTVSS
binds	1.61a (VHH) VHH: QVQLVESGGGVVRPGGSLRLSCAASGFTFDNYAMSWVRQAPGKGLEWVSGITWNGGSTGYADSVKDRFTISRDNAKNSLYLQMNSLRAEDTALYYCARDKYSYAWSYDTFDIRGQGTMVTVSS
binds	1.66a (VHH) VHH: EVQLVESGGGVVRPGGSLRLSCAASGFTFDDYANSWVRQAPGKGLEWVSGITWNGGSTGYADSVKGRFTISRDNAKNSLYLQMNSLRAEDTALYYCVRDKYSYAWSYDGFDIWGQGTMVTVSS
binds	1.69a (VHH) VHH: EVQLVESGGGVVRPGGSLRLSCAASGFTFDDYAWSWVRQAPGKGLEWVSGITWNGGSTGYADSVKGRFTISRDNAKNSLYLQMNSLRAEDTALYYCVRDKYSYAWSYDGFDIWGQGTMVTVSS
binds	1.59a (VHH) VHH: QVQLVESGGGVVRPGGSLRLSCAASGFTFDDYAMSWVRQAPGKGLEWVSGISWNGGSKGYADSVKDRFTISRDNAKNSLYLQMNSLRAEDTALYYCARDPYSGAWSYDAFDIWGQGTMVTVSS
binds	1.64a (VHH) VHH: EVQLVESGGGVVRPGGSLRLSCAASGFTFDDYAFSWVRQAPGKGLEWVSGITWNGGSTGYADSVKGRFTISRDNAKNSLYLQMNSLRAEDTALYYCVRDKYSYAWSYDGFDIWGQGTMVTVSS
binds	1.63a (VHH) VHH: EVQLVESGGGVVRPGGSLRLSCAASGFTFDDYAMSWVRQAPGKGLEWVSGITWNRGSTGYADSVKGRFTISRDNAKNSLYLQMNSLRAEDTALYYCVRDKYSYAWSYDDFDIWGQGTMVTVSS
binds	1.60a (VHH) VHH: QVQLVESGGGVVRPGGSLRLSCAASGFTFDDYAMSWVRQAPGKGLEWVSGISWNGGSTGYADSVKDRFTISRDNAKNSLYLQMNSLRAEDTALYYCARDPYSGAWSYDAFDIWGQGTMVTVSS
binds	1.65a (VHH) VHH: EVQLVESGGGVVRPGGSLRLSCAASGFTFDDYAQSWVRQAPGKGLEWVSGITWNGGSTGYADSVKGRFTISRDNAKNSLYLQMNSLRAEDTALYYCVRDKYSYAWSYDGFDIWGQGTMVTVSS
binds	1.68a (VHH) VHH: EVQLVESGGGVVRPGGSLRLSCAASGFTFDDYAESWVRQAPGKGLEWVSGITWNGGSTGYADSVKGRFTISRDNAKNSLYLQMNSLRAEDTALYYCVRDKYSYAWSYDGFDIWGQGTMVTVSS
binds	1.58a (VHH) VHH: QVQLVESGGGLVQPGGSLRLSCAASGFTFDDYAMSWVRQAPGKGLEWVSGISWNGGSAGYADSVKDRFTISRDNAKNSLYLQMNSLRAEDTALYYCARDPHSSAWSYDAFDIWGQGTMVTVSS
binds	1.67a (VHH) VHH: EVQLVESGGGVVRPGGSLRLSCAASGFTFDDYAGSWVRQAPGKGLEWVSGITWNGGSTGYADSVKGRFTISRDNAKNSLYLQMNSLRAEDTALYYCVRDKYSYAWSYDGFDIWGQGTMVTVSS
